Measured values reported in the DeepSol protein solubility set.

assay: soluble on expression in E. coli; label from the status in PepcDB or PDB records

**Q.** For “MAEHDLTARMAGHLDCHLVLPLLEFLQERHLYPEEEILEAKIRLLRGTNMVDYAMDIHKSRYGTDDVPEDMVKRRAEVVSRLTSLGEAIDNIHQNQQIGPDQIETLYQYAKFQFDCGNYSFAAQYLHQYRALCTNIERSLSALWGKLAAEILMQNWDVALEELNRLKEIIDSKNFSSPLNQLQNRIWLMHWSIFIFYNHENGRNGIIDLFFQERYLNAIQTNAPHLLRYLATAVVVNKRRRNMLKELIKVIQQEQHSYKDPITEFLECLFVNYDFDGAQQKLIECEEVILNDPFLGKRIEEGNSITVPLRDEFLENARLFIFETYCRIHRSIDIGMLSQKLNMRYDEGELWIMNLVRNSKLDAKIDSVSGTLIMTTNHVNIHEQFIESLKNLNMRTSMLAKNIVEPAQAMQQATR”, which “soluble on expression in E. coli” value is on record?
**A.** Its value is “not soluble”.

**Q.** For “MAQQAPDREKALELAMAQIDKNFGKGSVMRLGEEVRQPISVIPTGSISLDVALGIGGLPRGRVIEIYGPESSGKTTVALHAVANAQAAGGIAAFIDAEHALDPEYAKKLGVDTDSLLVSQPDTGEQALEIADMLVRSGALDIIVIDSVAALVPRAEIEGEMGDSHVGLQARLMSQALRKMTGALNNSGTTAIFINALREKIGVMFGSPETTTGGKALKFYASVRLDVRRIETLKDGTDAVGNRTRVKVVKNKVSPPFKQAEFDILYGQGISREGSLIDMGVEHGFIRKSGSWFTYEGEQLGQGKENARKFLLENTDVANEIEKKIKEKLGIGAVVTAEADDVLPAPVDF”, which “soluble on expression in E. coli” value is on record?
**A.** Its value is “soluble”.

**Q.** With “MPVIPKSGRLAAVGVLGRIVDVLMRLSLLIRGAVPGGVAAAAATRYRDRIDTGTTATYYGRVVREGGYVVLQYWFFYAMNDWRSVYGGVNDHEADWEKVTVYLVEEENGEYRPVWVGASSHEYLGDDLRRRWDDPELHRDGNHPIIYVGAGSHSHQMLPGDYLIQVDPAFLRGVLRAWRRFTARFLPSSSRLRGIGVPFVDYARGDGVRVGPGGERTWTPVLIDDTTPWVRGYRGLWGRNTRDWFDGERAPSGPRYERLEHHHHHH” as the sequence, how does the “soluble on expression in E. coli” value read?
**A.** Its value is “soluble”.

**Q.** With “QIIKDVVVWKTSLQDSDTPEKTLVFTATIKPGWHLYDQNLPEDGPTSTEFLFDKMTGAKLVGKAIPDKAPVNRYDKQFEMDLRWYEKTVSFRQKIQVTDPAKFSIKGGVRFMACNDENCLPPETSDFSFDASMIKSKAAAPDTEAEAAEAVAAETAADTTSQTDAAEALSSKADLWTPVVSELRAYGDDTLKQAESAPWKIFLYG” as the sequence, how does the “soluble on expression in E. coli” value read?
**A.** Its value is “not soluble”.

**Q.** For “MGSDKIHHHHHHLGFILDKSGLIPPSIDFPELIKAGREQLHRETDYEQEARHLDMFFKLMAGDKCFEVPRINQEFTTDKTLAMEFKEGVTIDQIVSANYNVKNKAVLNLIDLFFRELFEFNLIQSDPNYANFLFDEKNGKIILLDFGATIPVSSDTLAKFKALFNETLGQNKKSVENAMYQLGILDKGLPSHILNELTDIYWDSTEPIRKNKMFDFGNSNILERMQELSSEIIVHRKKIKIPPFDILSIQRKIGGIFLLARRFEAKINLNKIFEK”, which “soluble on expression in E. coli” value is on record?
**A.** Its value is “not soluble”.

**Q.** With “MSSGFAVSARSLALMATLAFAAPALAQQYGGEVDPEIRIQQLEDRLRTLTGQNEELQHRNRRLEEQVRQLQSGAGAPGAQQPAPNQATTPPAAPQQPYSQPAQQPAYGQQQPGYGQPQAPMVQPQPAAPQGGGRRGDAFDPSRDPNAPGVPRALGGGQLPMEQSGGMPAGRAAGAPMDLSNGNGGYVQGGYPQGGAPSAAKQPPAATAGGALTTQPPSQTPRDEFDLGIGYMQRRDYALAEETMRNFAQKYPDNPLTADAQYWLGESFFQRQMYRDAAEAFLAVTSKHEKSGKAPDALLRLGQSLSALKEKEAACAALGEIGRKYPQASSSVKKAVDREQKKLKC” as the sequence, how does the “soluble on expression in E. coli” value read?
**A.** The value was “not soluble”.

**Q.** For “MKQQEVRQRAFAMPLTSPAFPPGPYRFVNREYMIITYRTDPAAIEAVLPEPLQMAEPVVRYEFIRMPDSTGFGDYSESGQVIPVTFRGERGSYTLAMFLDDQPPLAGGRELWGFPKKAGKPRLEVHQDTLVGSLDFGPVRIATGTMGYKYEALDRSALLASLAEPNFLLKIIPHVDGSPRICELVRYHTTDVAIKGAWSAPGSLELHPHALAPVAALPVLEVLSARHFVCDLTLDLGTVVFDYLRQ”, which “soluble on expression in E. coli” value is on record?
**A.** Its value is “soluble”.

**Q.** For “MLKHLLPLGTRDEFGRRARTKQHLIAVIQAHFKQRGLAPIATPLLENEAVFDPYQMGNYQLYRLFGNDGRTLVLRPDMTLPVARFISATNVPLPQKFGYVGDIFRVSRQLSGSYNQITQAGVELVGYASLKAEFECLTIANQLSSELIADAVEIELGDAQFAQRVVASLTGDEGEQQAILTALFDKQVPRYTKLIAKYRAQPLYDFLKAWPRLFGRPECIFKELAAAPLPETVQPSLKRLQTVVAWMQQTMPEQVISVDLSSQAPQKYYTGLTFRGYSQAGAGYLFSGGRYDKLLTNFQAEAEPAVGMGLNVDLLTTLATDQQTAYAEQLIYFEPEQWSQAEAYLAKQPHAILSLADDLAGARIEAQRLNAQLIDLTGGMTND”, which “soluble on expression in E. coli” value is on record?
**A.** The value was “not soluble”.

**Q.** With “MGRWWRYKWITFHPSLTQHWLWYAYNTKTGGVLAYTFGPRNDETCRELLALLTPFCIGMVTSDDWGSYAREVPKEKHLTGKIFTQRIARNNRTLRTRIKRLARKTICFSRSVEIHEKVIGSFIEKHMFYLEHHHHHH” as the sequence, how does the “soluble on expression in E. coli” value read?
**A.** The value was “soluble”.

**Q.** Which “soluble on expression in E. coli” value does the source give for “MREVKLVTFDVWNTLLDLNIMLDEFSHQLAKISGLHIKDVANAVIEVRNEIKKMRAQASEDPRKVLTGSQEALAGKLKVDVELVKRATARAILNVDESLVLEGTKEALQFVKERGLKTAVIGNVMFWPGSYTRLLLERFGLMEFIDKTFFADEVLSYKPRKEMFEKVLNSFEVKPEESLHIGDTYAEDYQGARKVGMWAVWINQEGDKVRKLEERGFEIPSIANLKDVIELISKT” here?
**A.** Its value is “soluble”.

**Q.** Which “soluble on expression in E. coli” value does the source give for “MLTRLAAVLEERKNAAPDSSYVASLYHKGLNKILEKVGEESVETIIAAKDAAASGDCQDLIYETADLWFHSLVMLSALGQHPQAVLDELERRFG” here?
**A.** The value was “soluble”.

**Q.** With “MNVYTFDFNDIKNQSDFYREFTQTFGLASEKVSDLDTLWDAVMSDILPLPLEIEFVHLPDKLRRRYGALILLFDEAEEELEGRLRFNVRH” as the sequence, how does the “soluble on expression in E. coli” value read?
**A.** Its value is “not soluble”.

**Q.** Which “soluble on expression in E. coli” value does the source give for “MKVRAIFLNFSVQLTPPSRLVILRNQSVFFSALLLNCPPLLPLPTEASPCYAVSESQPYARKQSCIITAARSAPSVDHIQVVLCRPHNSLLVCPSSHARSSTAVMATEDELRELLPKMRFNKEFKKKQKYQYKKRVEAREKEREIVTGKRRPASEQIQSASDGAKTKTTAAKKSGGAGRAGTKRKPKTRVPKLKVANVETGKETLTKKKARELVQENRKKKACAKKEPKLTAKSTRAGAATAAVVSSETLEGKQSKARVTKDELPATAAQAASSVEPTQTLTQAERDRELLARAIRGDDLLGSDAAAGVADDAAFIRQDPSLYPDHAFLDDYAEKKHAEAVSADELLQNAHHFFKKLSKQERALNKVAKEHINHLRAVNRRGGDKQGFRYVVPKNVKQVVRELLSAQKARDGDEDPETLVDTEQLVSTFGGDGVAETSEKPVRRSRRRRLRTYSDFYQFQVSRRWTRNAENFLKRSRSNKLLFEAKKHQRTIKHF” here?
**A.** The value was “not soluble”.

**Q.** Which “soluble on expression in E. coli” value does the source give for “MGSDKIHHHHHHMKNRKTPMKEQSPESRRRNFEEVALGYTLEEALEEAQRCLQCPTHPCVSGCPVEIDIPGFIRKLRDGKLEESYRILKSYNNLPAVCGRVCPQEVQCESRCVVGKMKDSEPVAIGRLERFVADWAAENLEEDVKPLAGSKKEKVAVVGSGPAGLTAAADLAKMGYHVDIFEAFHKPGGVLVYGIPEFRLPKRIVEREVSYIRKLGVNFHLNTVVGKTVKVKELLSEYDAVFIGTGAGTPKFMGIPGTNLNGVYSANEFLTRVNLMKAYLFPEYDTPIRVGKKVAVIGAGNTAMDAARSALRLGAEKVYIVYRRTEREMPARREEYHHALEEGIEFLWLTLPIRYIGDANGNVEAMECVRMELKEADGSGRPRPVPIEGSNFVLEVDMVIEAIGQGPNRVLLSEFPGLELNERGYIKADEDTGATSVKGVFAGGDIVTGAATVIKAMGAGKKAAQFIHSYLTGEWNPWQK” here?
**A.** Its value is “not soluble”.

**Q.** With “MSLNWEHLLSLKRQGDTAKRLRIEQDDTRLGFEVDYDRIIFSAPFRSLQDKTQVIPLSKTDFVHTRLTHSLEVSVVGRSLGRMVGKKLLEKYPHLEQVYGYKFNDFGAIVAAAALAHDIGNPPFGHSGEKAIGEFFKNGYGKRYKDSLTAKEYQDLIKFEGNANGFKVLSQSKPGAQGGLRLSYATLGAFMKYPKESLPHKPSDHIADKKYGFFQSERALFEDVAQELGLLKRSTTDDVSWSRHPLAYLVEAADDICYTIIDFEDGINLGLIPEEYALEYMVKLVGQTIDRNKYNALQETSDRVSYLRALAIGTLINESVDTFMKYEEEILAGTFDQSLIDKSNYQAQITDIINLSIERIYNSREVIEKEIAGYEILSTLLEARCRALDNNDTHYNQLIQQLLAPNDHSEKSLYENLIQICAEVSTMTDGKALRNYKKIKGLDEGHHHHHH” as the sequence, how does the “soluble on expression in E. coli” value read?
**A.** The value was “soluble”.

**Q.** For “GPGSMSADKVVIIGAGPTGLGAAVRLMELKHANFHLYDGGTVPGGLSRSVLDDKGFLWDMGGHVIFSHYAYFDDVMNLAISDWNTLQRESWVRCSGAWVPYPFQSNIHRLPPEVRDTCLKGIEEAEAARSVAAPEKPQNFAEYVSRHFGEGIAEVFMRPYNFKVWAVPLHLMSTEWVGERVAAVNVERIRENIQLKRDDVGWGPNATFRFPKSGGTGAIYKAVWKMIPEAHKTLGPQCRVTKVNPITKTLTMANGEAVSYDALVSTMPLDDLLLAVAAGVEEDAETASASALKAPRLREIADKMVYSSTHIIGIGVKGCPPPEMRTACWLYFPEDGIPFYRATIFSRYADTNAPEGHWSILLEVSQNVLYKPVNVDTIVEDCIAGLRTVTLLRPEDEIVSRWHHMEKKGYPIPFVGRNELLEEVQPVLRDKYQIYSRGRFGAWRYEVANQDHSLMQGVEAVGHIFYGTDEDTVHKPEKVNTRRGEMRCTWSSTAS”, which “soluble on expression in E. coli” value is on record?
**A.** Its value is “soluble”.

**Q.** With “HHHHHHSSGLVPRGSHMSVKKAGVLGATGSVGQRFILLLSKHPEFEIHALGASSRSAGKKYKDAASWKQTETLPETEQDIVVQECKPEGNFLECDVVFSGLDADVAGDIEKSFVEAGLAVVSNAKNYRREKDVPLVVPIVNPEHIDVVENKVKQAVSKGGKKPGFIICISNCSTAGLVAPLKPLVEKFGPIDALTTTTLQAISGAGFSPGVSGMDILDNIVPYISGEEDKLEWETKKILGGVNAEGTEFVPIPESEMKVSAQCNRVPVIDGHTECISLRFANRPAPSVEDVKQCLREYECAASKLGCHSAPKQTIHVLDQPDRPQPRLDRDRDSGYGVSVGRIREDSLLDFKMVVLSHNTIIGAAGAGILIAEILKAKNII” as the sequence, how does the “soluble on expression in E. coli” value read?
**A.** The value was “soluble”.

**Q.** Which “soluble on expression in E. coli” value does the source give for “MSLARPDELMFAPLGGVGEIGMNLSIYGLGNRHQRSWLAVDLGVSFGDEEHLPGIDLIMPDVRFLEKERKNLVGLVLTHAHEDHFGAIIELWPRLKCPIYATKFSAALFEAKCAAERNPPDIPVTVVPSGDRIDLGPFGVEFVPVAHSIPESHALAIHTAAGIVVHTGDWKIDPTPIVGPPTDERRLRELGDEGVLALIGDSTNAVRDGRSPSETEVAKTIAELVKAARGRVAVTTFASNVGRLRAVADAARAAGREVVVVGRAMERVVQVARETGHLDGMQELRSADVYGHLPSDKVLALCTGSQGEPRAALARIAKDDHPQVTLNRGDTVIFSSRTIPGNERAVGAIINGLVTQGIKVITDRTELVHVSGHPRRDELRDMIAWVRPQLLIPVHGEALHLSEHAQLARAAGVPKVLICKNGDLVRLGPEGHHHHHH” here?
**A.** The value was “soluble”.

**Q.** With “MARFVVLVIDSFGVGAMKDVTLVRPQDAGANTCGHILSQLPHLQLPTLETLGLINALGYAPGDMQPSDSATWGVAELQHEGGDTFMGHQEILGTRPLPPLRMPFRDVIDRVEQALVSAGWQVERRGDDLQFLWVNQAVAIGDNLEADLGQVYNITANLSVISFDDAIKIGRIVREQVQVGRVITFGGLLTDSQRILDAAESKEGRFIGINAPRSGAYDNGFQVVHMGYGVDEKVQVPQKLYEAGVPTVLVGKVADIVNNPYGVSWQNLVDSQRIMDITLNEFNTHPTAFICTNIQETDLAGHAEDVARYAERLQVVDRNLARLVEAMQPDDCLVVMADHGNDPTIGHSHHTREVVPVLVYQQGMIATQLGVRTTLSDVGATVCEFFRAPPPQNGRSFLSSLRFAGDTLGKWYYLNSNGAMVTGSQTIDGKVYNFASSGEWI” as the sequence, how does the “soluble on expression in E. coli” value read?
**A.** Its value is “not soluble”.
